The record followed here is IntAct's records for PubMed 20596027.

The chains are these.
B1: Cyclin-F (Homo sapiens), P41002 (parent)
chain: MGSGGVVHCRCAKCFCYPTKRRIRRRPRNLTILSLPEDVLFHILKWLSVEDILAVRAVHSQLKDLVDNHASVWACASFQELWPSPGNLKLFERAAEKGNFEAAVKLGIAYLYNEGLSVSDEARAEVNGLKASRFFSLAERLNVGAAPFIWLFIRPPWSVSGSCCKAVVHESLRAECQLQRTHKASILHCLGRVLSLFEDEEKQQQAHDLFEEAAHQGCLTSSYLLWESDRRTDVSDPGRCLHSFRKLRDYAAKGCWEAQLSLAKACANANQLGLEVRASSEIVCQLFQASQAVSKQQVFSVQKGLNDTMRYILIDWLVEVATMKDFTSLCLHLTVECVDRYLRRRLVPRYRLQLLGIACMVICTRFISKEILTIREAVWLTDNTYKYEDLVRMMGEIVSALEGKIRVPTVVDYKEVLLTLVPVELRTQHLCSFLCELSLLHTSLSAYAPARLAAAALLLARLTHGQTQPWTTQLWDLTGFSYEDLIPCVLSLHKKCFHDDAPKDYRQVSLTAVKQRFEDKRYGEISQEEVLSYSQLCAALGVTQDSPDPPTFLSTGEIHAFLSSPSGRRTKRKRENSLQEDRGSFVTTPTAELSSQEETLLGSFLDWSLDCCSGYEGDQESEGEKEGDVTAPSGILDVTVVYLNPEQHCCQESSDEEACPEDKGPQDPQALALDTQIPATPGPKPLVRTSREPGKDVTTSGYSSVSTASPTSSVDGGLGALPQPTSVLSLDSDSHTQPCHHQARKSCLQCRPPSPPESSVPQQQVKRINLCIHSEEEDMNLGLVRL
B2: Centriolar coiled-coil protein of 110 kDa (Homo sapiens), O43303-2 (parent)
chain: MEEYEKFCEKSLARIQEASLSTESFLPAQSESISLIRFHGVAILSPLLNIEKRKEMQQEKQKALDVEARKQVNRKKALLTRVQEILDNVQVRKAPNASDFDQWEMETVYSNSEVRNLNVPATFPNSFPSHTEHSTAAKLDKIAGILPLDNEDQCKTDGIDLARDSEGFNSPKQCDSSNISHVENEAFPKTSSATPQETLISDGPFSVNEQQDLPLLAEVIPDPYVMSLQNLMKKSKEYIEREQSRRSLRGSINRIVNESHLDKEHDAVEVADCVKEKGQLTGKHCVSVIPDKPSLNKSNVLLQGASTQASSMSMPVLASFSKVDIPIRTGHPTVLESNSDFKVIPTFVTENNVIKSLTGSYAKLPSPEPSMSPKMHRRRSRTSSACHILINNPINACELSPKGKEQAMDLIIQDTDENTNVPEIMPKLPTDLAGVCSSKVYVGKNTSEVKEDVVLGKSNQVCQSSGNHLENKVTHGLVTVEGQLTSDERGAHIMNSTCAAMPKLHEPYASSQCIASPNFGTVSGLKPASMLEKNCSLQTELNKSYDVKNPSPLLMQNQNTRQQMDTPMVSCGNEQFLDNSFEKVKRRLDLDIDGLQKENCPYVITSGITEQERQHLPEKRYPKGSGFVNKNKMLGTSSKESEELLKSKMLAFEEMRKRLEEQHAQQLSLLIAEQEREQERLQKEIEEQEKMLKEKKAMTAEASELDINNAVELEWRKISDSSLLETMLSQADSLHTSNSNSSGFTNSAMQYSFVSANEAPFYLWGSSTSGLTKLSVTRPFGRAKTRWSQVFSLEIQAKFNKITAVAKGFLTRRLMQTDKLKQLRQTVKDTMEFIRSFQSEAPLKRGIVSAQDASLQERVLAQLRAALYGIHDIFFVMDAAERMSILHHDREVRKEKMLRQMDKMKSPRVALSAATQKSLDRKKYMKAAEMGMPNKKFLVKQNPSETRVLQPNQGQNAPVHRLLSRQGSICRKNPKKAAKCCDNLRRQHSLG
partner: B1 chain

Variants of B1 are the subject of the first assay. Conditions: with cul1_human CUL1, Q13616.
Chain of cul1_human CUL1, Q13616 (Q13616 whole entry): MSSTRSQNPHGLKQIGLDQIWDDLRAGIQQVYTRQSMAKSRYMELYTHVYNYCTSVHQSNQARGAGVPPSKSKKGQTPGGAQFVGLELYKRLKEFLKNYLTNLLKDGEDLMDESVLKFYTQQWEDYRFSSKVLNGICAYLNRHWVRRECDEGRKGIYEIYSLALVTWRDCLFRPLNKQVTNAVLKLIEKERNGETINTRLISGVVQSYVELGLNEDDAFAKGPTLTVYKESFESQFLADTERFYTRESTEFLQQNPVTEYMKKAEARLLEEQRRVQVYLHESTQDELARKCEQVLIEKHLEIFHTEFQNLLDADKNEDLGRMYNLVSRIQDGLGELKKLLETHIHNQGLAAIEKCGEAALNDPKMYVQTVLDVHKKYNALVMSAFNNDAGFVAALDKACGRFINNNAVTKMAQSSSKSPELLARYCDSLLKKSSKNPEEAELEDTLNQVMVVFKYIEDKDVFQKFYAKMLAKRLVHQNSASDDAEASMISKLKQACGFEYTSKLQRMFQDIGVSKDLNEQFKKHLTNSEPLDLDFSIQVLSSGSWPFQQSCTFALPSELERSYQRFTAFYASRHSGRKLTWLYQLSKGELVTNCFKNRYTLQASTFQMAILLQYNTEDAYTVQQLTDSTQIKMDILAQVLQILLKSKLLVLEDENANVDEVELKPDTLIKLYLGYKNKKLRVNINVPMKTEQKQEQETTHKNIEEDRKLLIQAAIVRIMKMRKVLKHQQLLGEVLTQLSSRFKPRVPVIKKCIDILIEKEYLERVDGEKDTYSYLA
In the case of L35A;P36A, the “effect of a mutation on the interaction” value is reported as “disrupting interaction”.

A further assay covers variants of B1. Conditions: with cp110_human CCP110, O43303.
On to M309A;L313A, for which the “effect of a mutation on the interaction” value was “disrupting interaction”.

In the next assay the parent is B2. As to conditions: with ccnf_human CCNF.
In the case of L588A;L590A, the “effect of a mutation on the interaction” value was “disrupting interaction”.
